Experimental data as given in paper PMC5774749, “Coiled-coil formation of the membrane-fusion K/E peptides viewed by electron paramagnetic resonance” (PLoS ONE, 2018).
Values belong to the binder of their own block, whether it stands above or below them. *: point of attachment. MTSL = CC1(C)C=C(CS*)C(C)(C)N1[O]

B1: SL-K (peptide)
peptide: Ac-C(MTSL)KIAALKEKIAALKEKIAALKEGW-NH2
SMILES: CC[C@H](C)[C@H](NC(=O)[C@H](CCCCN)NC(=O)[C@H](CSSCC1=CC(C)(C)N([O])C1(C)C)NC(C)=O)C(=O)N[C@@H](C)C(=O)N[C@@H](C)C(=O)N[C@@H](CC(C)C)C(=O)N[C@@H](CCCCN)C(=O)N[C@@H](CCC(=O)O)C(=O)N[C@@H](CCCCN)C(=O)N[C@H](C(=O)N[C@@H](C)C(=O)N[C@@H](C)C(=O)N[C@@H](CC(C)C)C(=O)N[C@@H](CCCCN)C(=O)N[C@@H](CCC(=O)O)C(=O)N[C@@H](CCCCN)C(=O)N[C@H](C(=O)N[C@@H](C)C(=O)N[C@@H](C)C(=O)N[C@@H](CC(C)C)C(=O)N[C@@H](CCCCN)C(=O)N[C@@H](CCC(=O)O)C(=O)NCC(=O)N[C@@H](Cc1c[nH]c2ccccc12)C(N)=O)[C@@H](C)CC)[C@@H](C)CC
notes: designed coiled-coil zipper peptide K; printed as Ac-C(SL)-(KIAALKE)3-GW-NH2, the repeat written out three times; degree of spin labelling around 80%; also called K-peptide, spin labelled at the N-terminus; Cys-K
B3: K-SL (peptide)
peptide: Ac-KIAALKEKIAALKEKIAALKEGWC(MTSL)-NH2
SMILES: CC[C@H](C)[C@H](NC(=O)[C@H](CCCCN)NC(C)=O)C(=O)N[C@@H](C)C(=O)N[C@@H](C)C(=O)N[C@@H](CC(C)C)C(=O)N[C@@H](CCCCN)C(=O)N[C@@H](CCC(=O)O)C(=O)N[C@@H](CCCCN)C(=O)N[C@H](C(=O)N[C@@H](C)C(=O)N[C@@H](C)C(=O)N[C@@H](CC(C)C)C(=O)N[C@@H](CCCCN)C(=O)N[C@@H](CCC(=O)O)C(=O)N[C@@H](CCCCN)C(=O)N[C@H](C(=O)N[C@@H](C)C(=O)N[C@@H](C)C(=O)N[C@@H](CC(C)C)C(=O)N[C@@H](CCCCN)C(=O)N[C@@H](CCC(=O)O)C(=O)NCC(=O)N[C@@H](Cc1c[nH]c2ccccc12)C(=O)N[C@@H](CSSCC1=CC(C)(C)N([O])C1(C)C)C(N)=O)[C@@H](C)CC)[C@@H](C)CC
notes: designed coiled-coil zipper peptide K; printed as Ac-(KIAALKE)3-GWC(SL)-NH2, the repeat written out three times; degree of spin labelling around 70%; also called K-peptide, spin labelled at the C-terminus
B5: E-SL (peptide)
peptide: Ac-EIAALEKEIAALEKEIAALEKGYC(MTSL)-NH2
SMILES: CC[C@H](C)[C@H](NC(=O)[C@H](CCC(=O)O)NC(C)=O)C(=O)N[C@@H](C)C(=O)N[C@@H](C)C(=O)N[C@@H](CC(C)C)C(=O)N[C@@H](CCC(=O)O)C(=O)N[C@@H](CCCCN)C(=O)N[C@@H](CCC(=O)O)C(=O)N[C@H](C(=O)N[C@@H](C)C(=O)N[C@@H](C)C(=O)N[C@@H](CC(C)C)C(=O)N[C@@H](CCC(=O)O)C(=O)N[C@@H](CCCCN)C(=O)N[C@@H](CCC(=O)O)C(=O)N[C@H](C(=O)N[C@@H](C)C(=O)N[C@@H](C)C(=O)N[C@@H](CC(C)C)C(=O)N[C@@H](CCC(=O)O)C(=O)N[C@@H](CCCCN)C(=O)NCC(=O)N[C@@H](Cc1ccc(O)cc1)C(=O)N[C@@H](CSSCC1=CC(C)(C)N([O])C1(C)C)C(N)=O)[C@@H](C)CC)[C@@H](C)CC
notes: designed coiled-coil zipper peptide E; printed as Ac-(EIAALEK)3-GYC(SL)-NH2, the repeat written out three times; degree of spin labelling around 80%; also called E-peptide, spin labelled at the C-terminus; E-Cys

How the values were obtained:
[1] = target: the molecule itself; experiment: DEER (double electron-electron resonance); frozen solution, 40 K, 9.7 GHz; PBS with 20% (wt) glycerol; total peptide 0.3 mM, mixtures equimolar; same samples as for cw-EPR; Tikhonov regularization
E-SL = target: B5; experiment: continuous-wave EPR at room temperature; solution; rotation-correlation time of the spin-labelled peptide with and without the unlabelled partner; described in S1 Text; settings: both partners purified
[2] = target: the molecule itself; experiment: continuous-wave EPR of frozen solution; 120 K, 9.7 GHz; PBS with 20% (wt) glycerol; total peptide 0.3 mM, mixtures equimolar; line broadening against free MTSL, distances from simulation of the spectra
K-SL [3] = target: B3; experiment: continuous-wave EPR at room temperature; solution; rotation-correlation time of the spin-labelled peptide with and without the unlabelled partner; described in S1 Text; settings: both partners purified
SL-K [4] = target: B1; experiment: as above; settings: both partners purified
K-SL [5] = target: B3; experiment: continuous-wave EPR of frozen solution; 120 K, 9.7 GHz; PBS with 20% (wt) glycerol; total peptide 0.3 mM, mixtures equimolar; line broadening against free MTSL, distances from simulation of the spectra; settings: both partners purified
SL-K [6] = target: B1; experiment: DEER (double electron-electron resonance); frozen solution, 40 K, 9.7 GHz; PBS with 20% (wt) glycerol; total peptide 0.3 mM, mixtures equimolar; same samples as for cw-EPR; Tikhonov regularization; settings: both partners purified

Binder: B1
binding result [1]: binds

binding result (E-SL): binds
B2: K (peptide)
peptide: Ac-KIAALKEKIAALKEKIAALKEGW-NH2
notes: designed coiled-coil zipper peptide K; printed as Ac-(KIAALKE)3-GW-NH2, the repeat written out three times; unlabelled peptide added to E-SL in the room-temperature cw-EPR; the details of these samples are in S1 Text; also called K-peptide; peptide K; source: synthetic peptide

Binder: B3
binding result [2]: binds

binding result (K-SL [3]): binds
binding result (SL-K [4]): binds
B4: E (peptide)
peptide: Ac-EIAALEKEIAALEKEIAALEKGY-NH2
notes: designed coiled-coil zipper peptide E; printed as Ac-(EIAALEK)3-GY-NH2, the repeat written out three times; unlabelled peptide added to K-SL or SL-K in the room-temperature cw-EPR; the details of these samples are in S1 Text; also called E-peptide; peptide E; source: synthetic peptide

Binder: B5
binding result (K-SL [5]): binds
binding result (SL-K [6]): binds
